According to paper PMC12808100, “The non-catalytic DNA polymerase ε subunit is an NPF motif recognition protein” (Nature Communications, 2025):

B1: endogenous DONSON: endogenous DONSON protein in Jurkat extract (protein)
chain: MALSVPGYSPGFRKPPEVVRLRRKRARSRGAAASPPRELTEPAARRAALVAGLPLRPFPAAGGRGGGSGGGPAAARRNPFARLDNRPRVAAEPPDGPAREQPEAPVPFLDSNQENDLLWEEKFPERTTVTELPQTSHVSFSEPDIPSSKSTELPVDWSIKTRLLFTSSQPFTWADHLKAQEEAQGLVQHCRATEVTLPKSIQDPKLSSELRCTFQQSLIYWLHPALSWLPLFPRIGADRKMAGKTSPWSNDATLQHVLMSDWSVSFTSLYNLLKTKLCPYFYVCTYQFTVLFRAAGLAGSDLITALISPTTRGLREAMRNEGIEFSLPLIKESGHKKETASGTSLGYGEEQAISDEDEEESFSWLEEMGVQDKIKKPDILSIKLRKEKHEVQMDHRPESVVLVKGINTFTLLNFLINSKSLVATSGPQAGLPPTLLSPVAFRGATMQMLKARSVNVKTQALSGYRDQFSLEITGPIMPHSLHSLTMLLKSSQSGSFSAVLYPHEPTAVFNICLQMDKVLDMEVVHKELTNCGLHPNTLEQLSQIPLLGKSSLRNVVLRDYIYNWRS
B2: PITPNA (protein, UniProt Q00169 2-270, looked up)
Phosphatidylinositol transfer …: VLLKEYRVILPVSVDEYQVGQLYSVAEASKNETGGGEGVEVLVNEPYEKDGEKGQYTHKIYHLQSKVPTFVRMLAPEGALNIHEKAWNAYPYCRTVITNEYMKEDFLIKIETWHKPDLGTQENVHKLEPEAWKHVEAVYIDIADRSQVLSKDYKAEEDPAKFKSIKTGRGPLGPNWKQELVNQKDCPYMCAYKLVTVKFKWWGLQNKVENFIHKQERRLFTNFHRQLFCWLDKWVDLTMDDIRRMEEETKRQLDEMRQKDPVKGMTADD
B3: FBXO3 (protein, UniProt Q9UK99 1-471, looked up)
F-box only protein 3: MAAMETETAPLTLESLPTDPLLLILSFLDYRDLINCCYVSRRLSQLSSHDPLWRRHCKKYWLISEEEKTQKNQCWKSLFIDTYSDVGRYIDHYAAIKKAWDDLKKYLEPRCPRMVLSLKEGAREEDLDAVEAQIGCKLPDDYRCSYRIHNGQKLVVPGLLGSMALSNHYRSEDLLDVDTAAGGFQQRQGLKYCLPLTFCIHTGLSQYIAVEAAEGRNKNEVFYQCPDQMARNPAAIDMFIIGATFTDWFTSYVKNVVSGGFPIIRDQIFRYVHDPECVATTGDITVSVSTSFLPELSSVHPPHYFFTYRIRIEMSKDALPEKACQLDSRYWRITNAKGDVEEVQGPGVVGEFPIISPGRVYEYTSCTTFSTTSGYMEGYYTFHFLYFKDKIFNVAIPRFHMACPTFRVSIARLEMGPDEYEEMEEEEEEEEEEDEDDDSADMDESDEDDEEERRRRVFDVPIRRRRCSRLF
B4: GLB1 (protein, UniProt P16278 29-677, looked up)
Beta-galactosidase: QRMFEIDYSRDSFLKDGQPFRYISGSIHYSRVPRFYWKDRLLKMKMAGLNAIQTYVPWNFHEPWPGQYQFSEDHDVEYFLRLAHELGLLVILRPGPYICAEWEMGGLPAWLLEKESILLRSSDPDYLAAVDKWLGVLLPKMKPLLYQNGGPVITVQVENEYGSYFACDFDYLRFLQKRFRHHLGDDVVLFTTDGAHKTFLKCGALQGLYTTVDFGTGSNITDAFLSQRKCEPKGPLINSEFYTGWLDHWGQPHSTIKTEAVASSLYDILARGASVNLYMFIGGTNFAYWNGANSPYAAQPTSYDYDAPLSEAGDLTEKYFALRNIIQKFEKVPEGPIPPSTPKFAYGKVTLEKLKTVGAALDILCPSGPIKSLYPLTFIQVKQHYGFVLYRTTLPQDCSNPAPLSSPLNGVHDRAYVAVDGIPQGVLERNNVITLNITGKAGATLDLLVENMGRVNYGAYINDFKGLVSNLTLSSNILTDWTIFPLDTEDAVRSHLGGWGHRDSGHHDEAWAHNSSNYTLPAFYMGNFSIPSGIPDLPQDTFIQFPGWTKGQVWINGFNLGRYWPARGPQLTLFVPQHILMTSAPNTITVLELEWAPCSSDDPELCAVTFVDRPVIGSSVTYDHPSKPVEKRLMPPPPQKNKDSWLDHV
B5: PNMA2 (protein, UniProt Q9UL42 2-364, looked up)
Paraneoplastic antigen Ma2: ALALLEDWCRIMSVDEQKSLMVTGIPADFEEAEIQEVLQETLKSLGRYRLLGKIFRKQENANAVLLELLEDTDVSAIPSEVQGKGGVWKVIFKTPNQDTEFLERLNLFLEKEGQTVSGMFRALGQEGVSPATVPCISPELLAHLLGQAMAHAPQPLLPMRYRKLRVFSGSAVPAPEEESFEVWLEQATEIVKEWPVTEAEKKRWLAESLRGPALDLMHIVQADNPSISVEECLEAFKQVFGSLESRRTAQVRYLKTYQEEGEKVSAYVLRLETLLRRAVEKRAIPRRIADQVRLEQVMAGATLNQMLWCRLRELKDQGPPPSFLELMKVIREEEEEEASFENESIEEPEERDGYGRWNHEGDD
B6: FBXO45 (protein, UniProt P0C2W1 2-286, looked up)
F-box/SPRY domain-containing …: AAPAPGAGAASGGAGCSGGGAGAGAGSGSGAAGAGGRLPSRVLELVFSYLELSELRSCALVCKHWYRCLHGDENSEVWRSLCARSLAEEALRTDILCNLPSYKAKIRAFQHAFSTNDCSRNVYIKKNGFTLHRNPIAQSTDGARTKIGFSEGRHAWEVWWEGPLGTVAVIGIATKRAPMQCQGYVALLGSDDQSWGWNLVDNNLLHNGEVNGSFPQCNNAPKYQIGERIRVILDMEDKTLAFERGYEFLGVAFRGLPKVCLYPAVSAVYGNTEVTLVYLGKPLDG
B7: LMO4 (protein, UniProt P61968 1-165, looked up)
LIM domain transcription …: MVNPGSSSQPPPVTAGSLSWKRCAGCGGKIADRFLLYAMDSYWHSRCLKCSCCQAQLGDIGTSCYTKSGMILCRNDYIRLFGNSGACSACGQSIPASELVMRAQGNVYHLKCFTCSTCRNRLVPGDRFHYINGSLFCEHDRPTALINGHLNSLQSNPLLPDQKVC
B8: DOK1 (protein, UniProt Q99704 1-481, looked up)
Docking protein 1: MDGAVMEGPLFLQSQRFGTKRWRKTWAVLYPASPHGVARLEFFDHKGSSSGGGRGSSRRLDCKVIRLAECVSVAPVTVETPPEPGATAFRLDTAQRSHLLAADAPSSAAWVQTLCRNAFPKGSWTLAPTDNPPKLSALEMLENSLYSPTWEGSQFWVTVQRTEAAERCGLHGSYVLRVEAERLTLLTVGAQSQILEPLLSWPYTLLRRYGRDKVMFSFEAGRRCPSGPGTFTFQTAQGNDIFQAVETAIHRQKAQGKAGQGHDVLRADSHEGEVAEGKLPSPPGPQELLDSPPALYAEPLDSLRIAPCPSQDSLYSDPLDSTSAQAGEGVQRKKPLYWDLYEHAQQQLLKAKLTDPKEDPIYDEPEGLAPVPPQGLYDLPREPKDAWWCQARVKEEGYELPYNPATDDYAVPPPRSTKPLLAPKPQGPAFPEPGTATGSGIKSHNSALYSQVQKSGASGSWDCGLSRVGTDKTGVKSEGST
B9: LDB1 (protein, UniProt Q86U70 2-411, looked up)
LIM domain-binding protein 1: SVGCACPGCSSKSFKLYSPKEPPNGNAFPPFHPGTMLDRDVGPTPMYPPTYLEPGIGRHTPYGNQTDYRIFELNKRLQNWTEECDNLWWDAFTTEFFEDDAMLTITFCLEDGPKRYTIGRTLIPRYFRSIFEGGATELYYVLKHPKEAFHSNFVSLDCDQGSMVTQHGKPMFTQVCVEGRLYLEFMFDDMMRIKTWHFSIRQHRELIPRSILAMHAQDPQMLDQLSKNITRCGLSNSTLNYLRLCVILEPMQELMSRHKTYSLSPRDCLKTCLFQKWQRMVAPPAEPTRQQPSKRRKRKMSGGSTMSSGGGNTNNSNSKKKSPASTFALSSQVPDVMVVGEPTLMGGEFGDEDERLITRLENTQFDAANGIDDEDSFNNSPALGANSPWNSKPPSSQESKSENPTSQASQ

The molecules below were run against His6-avi-MBP-tagged POLE2 (assay: Single-point nHU-MS with recombinant His6-avi-MBP-POLE2 bait, Jurkat extract). Conditions: from the depletion of one peptide, single quantification; read-out: dissociation constant.
Assay type: binding, human
Excerpt: So far, our study only focused on a few hand-picked NPF motifs and studied them as short synthetic peptides. However, many other proteins may be present in the proteome that could bind to POLE2 and their putative NPF motifs are embedded in their natural structures that can greatly affect their binding properties. To investigate interactions between POLE2 and intact, full length proteins proteome-wide, we used nHU-MS experiments with recombinant His6-avi-MBP-tagged POLE2 as bait and purified His6-avi-MBP as a control. Even though we are aware that this recombinant POLE2 may bind to NPF motifs with a somewhat altered affinity, we assumed that this would affect all NPF motif-mediated interactions equally, allowing an unbiased affinity ranking of all identified partners. Single point nHU measurements were performed at 26 μM POLE2 concentration and the recovered supernatant was measured by label free proteomic MS measurements (Fig. 3A, Supplementary Figs. 8A, 9, Supplementary Data 1).
Single-point nHU experiments with protein baits were carried out nearly identically with two key modifications. First, the resin saturation step was carried out by mixing 50 μl streptavidin resin with 0.5−1 ml 50 μM biotinylated protein solution and the mixture was incubated for 1.5 h at 4 °C with constant agitation. Second, instead of using estimated bait concentrations, we measured it experimentally. An extra aliquot of resin stock was prepared alongside the nHU samples that were identically processed that were used to eluate the immobilized proteins under harsh conditions, in order to experimentally quantify the Cbait by using densitometry of Coomassie stained SDS-PAGE that included a protein calibration series. For this, 50 μl bait-saturated resin aliquots were mixed with 200 μl 4x Laemmli Sample Buffer (120 mM Tris-HCl pH 7, 8% SDS, 100 mM DTT, 32% glycerol, 0.004% bromphenol blue, 1% β-mercaptoethanol), instead of cell extract. After 15 min incubation at 95 °C, these samples were analyzed by SDS-PAGE using protein calibration standard, made from recombinant MBP. Densitometry was carried out after Coomassie staining on raw Tif images by using Fiji ImageJ 1.53c and experimental bait concentration were determined by adjusting for molecular weight differences between MBP and MBP-POLE2 constructs.
Samples were digested overnight at 37 °C.
For B1, the Kd was 92 µM.

Same assay, conditions: one DONSON peptide, single quantification
With B1 the depletion was “approximately 22%”.

Same assay, conditions: significant apparent affinity of endogenous prey protein for POLE2 bait; single-point nHU-MS; Figure S11
B2 showed a pKapp_sign of 4.604. B3 was tested, and the pKapp_sign was 4.421. B4 was tested, and the pKapp_sign was 4.2. With B5 the pKapp_sign was 5.251. B6 showed a pKapp_sign of 4.883. B7 gave a pKapp_sign of 4.815. For B8, the pKapp_sign was 4.232. Molecule B9 has a pKapp_sign of 4.689.
